# Reference: patent US11932673
# Numbering of substitutions follows the chain as printed.
# B1: KB_A12_B-gal_H03 (scFv, V domains shown)
# VH: EVQLVESGGGLVRPGGSLRLSCAASGFTFSSYAMSWVRQAPGKGLEWVSAISGSGGSTYYADSVKGRFTISRDNTKNSLYLQMTSLRADDTAFYYCVKDFGPGYGTGWFDYWGPGTLVTVSS
# VL: AVNWYQQLPGKAPKLLIYAAGRCNQTMSIRRPCKQDSDCLAGCVCGPNGFCGANSGVSDRFSAAKSGTSASLAINGLRSEDEADYYCAAWDDSLNGYVFGTGTKLTVLG
# B2: KB_A12_B-gal_H07 (scFv, V domains shown)
# VH: B1 VH
# VL: B1 VL with N24T, M27A, S28L, P32R
# B3: KB_A12_B-gal_F09 (scFv, V domains shown)
# VH: B1 VH
# VL: B1 VL with N24I, Q25A, M27S, S28H, P32H
# B4: KB_A12_B-gal_F11 (scFv, V domains shown)
# VH: B1 VH
# VL: B1 VL with N24H, Q25E, M27A, S28Q, P32R
# B5: KB_A12_B-gal_E04 (scFv, V domains shown)
# VH: B1 VH
# VL: B1 VL with N24L, Q25A, M27T
# B6: KB_A12_B-gal_H02 (scFv, V domains shown)
# VH: B1 VH
# VL: B1 VL with N24E, M27S, S28V, P32H
# B7: KB_A12_B-gal_F07 (scFv, V domains shown)
# VH: B1 VH
# VL: B1 VL with N24R, Q25T, M27A, S28N, I29V, P32H
# B8: KB_A12_B-gal_E05 (scFv, V domains shown)
# VH: B1 VH
# VL: B1 VL with N24R, Q25E, M27S, I29L
# B9: KB_A12_B-gal_F03 (scFv, V domains shown)
# VH: B1 VH
# VL: B1 VL with N24L, Q25A, M27T, P32H
# B10: E03 (KnotBody with EET 5-3 framing) (scFv, V domains shown)
# VH: B1 VH
# VL: AVNWYQQLPGKAPKLLIYAAGGCGPNGFCGSGSDGGVCPRILMRCKQDSDCLAGCGRNSGIPERFSGSKSGHTATLTISRVEAGDEADYYCQVWDSSSDHVLFGGGTKLTVLG
# B11: F07 (KnotBody with EET 5-3 framing) (scFv, V domains shown)
# VH: B1 VH
# VL: AVNWYQQLPGKAPKLLIYAAGGCGPNGFCGSGSDGGVCPRILMRCKQDSDCLAGCGGQSGVPDRFSGSKSGTSASLAISRLQSEDEADYYCAAWDDSLNAYVFGTGTKVTVLG
# B12: G11 (KnotBody with EET 5-3 framing) (scFv, V domains shown)
# VH: B1 VH
# VL: AVNWYQQLPGKAPKLLIYAAGGCGPNGFCGSGSDGGVCPRILMRCKQDSDCLAGCGQSSGVSDRFSGSKSGTSATLDITGLQTGDEADYYCGTWDNSLSVGVFGGGTKVTVLG
# B13: E09 (KnotBody with EET 5-3 framing) (scFv, V domains shown)
# VH: B1 VH
# VL: B11 VL with G57T, V61I, D63E, R80G, Q82R, N99R, K108Q, V109L
# B14: F03 (KnotBody with EET 5-3 framing) (scFv, V domains shown)
# VH: B1 VH
# VL: AVNWYQQLPGRAPKLLIYAAGGCGPNGFCGSGGDGGVCPRILMRCKQDSDCLAGCGAHSGIPERFSGSKSGTSASLAISGLRSEDEADYYCAAWDDSLNGWVFGGGTKVTVLG
# B15: C09 (KnotBody with EET 5-3 framing) (scFv, V domains shown)
# VH: B1 VH
# VL: SEAPRQRVTITCGGKRCGPNGFCGSGSDGGVCPRILMRCKQDSDCLAGCTSNWYQQKPGQAPVLVVQDDSVRPSGIPERFSGSNSGNTATLTISRVEAGDGADYYCQVWDISSDLGVFGGGTKLTVLG
# B16: F01 (KnotBody with EET 5-3 framing) (scFv, V domains shown)
# VH: B1 VH
# VL: YLNWYQQKPGKAPKLLIDAAGECGPNGFCGSGSDGGVCPRINMRCKQDSDCLAGCGRDSGVPSRFSGSGSGTDFTLTISSLQPEDFATYYCQQSYSTPWTFGQGTKVEIKR
# B17: E01 (KnotBody with EET 5-3 framing) (scFv, V domains shown)
# VH: B1 VH
# VL: B11 VL with G57I, Q58H, P62S, G67D, R80G, A100G, V109L
# B18: E08 (KnotBody with EET 5-3 framing) (scFv, V domains shown)
# VH: B1 VH
# VL: B11 VL with G57I, V61I, D63E, R80G, Q82R, S97N, N99S, A100G, V109L
# B19: E05 (KnotBody with EET 5-3 framing) (scFv, V domains shown)
# VH: B1 VH
# VL: B11 VL with G57A, V61I, D63E, R80G, D88H, A100G
# Molecular target: β-galactosidase
# Sequence (P00722 2-1024): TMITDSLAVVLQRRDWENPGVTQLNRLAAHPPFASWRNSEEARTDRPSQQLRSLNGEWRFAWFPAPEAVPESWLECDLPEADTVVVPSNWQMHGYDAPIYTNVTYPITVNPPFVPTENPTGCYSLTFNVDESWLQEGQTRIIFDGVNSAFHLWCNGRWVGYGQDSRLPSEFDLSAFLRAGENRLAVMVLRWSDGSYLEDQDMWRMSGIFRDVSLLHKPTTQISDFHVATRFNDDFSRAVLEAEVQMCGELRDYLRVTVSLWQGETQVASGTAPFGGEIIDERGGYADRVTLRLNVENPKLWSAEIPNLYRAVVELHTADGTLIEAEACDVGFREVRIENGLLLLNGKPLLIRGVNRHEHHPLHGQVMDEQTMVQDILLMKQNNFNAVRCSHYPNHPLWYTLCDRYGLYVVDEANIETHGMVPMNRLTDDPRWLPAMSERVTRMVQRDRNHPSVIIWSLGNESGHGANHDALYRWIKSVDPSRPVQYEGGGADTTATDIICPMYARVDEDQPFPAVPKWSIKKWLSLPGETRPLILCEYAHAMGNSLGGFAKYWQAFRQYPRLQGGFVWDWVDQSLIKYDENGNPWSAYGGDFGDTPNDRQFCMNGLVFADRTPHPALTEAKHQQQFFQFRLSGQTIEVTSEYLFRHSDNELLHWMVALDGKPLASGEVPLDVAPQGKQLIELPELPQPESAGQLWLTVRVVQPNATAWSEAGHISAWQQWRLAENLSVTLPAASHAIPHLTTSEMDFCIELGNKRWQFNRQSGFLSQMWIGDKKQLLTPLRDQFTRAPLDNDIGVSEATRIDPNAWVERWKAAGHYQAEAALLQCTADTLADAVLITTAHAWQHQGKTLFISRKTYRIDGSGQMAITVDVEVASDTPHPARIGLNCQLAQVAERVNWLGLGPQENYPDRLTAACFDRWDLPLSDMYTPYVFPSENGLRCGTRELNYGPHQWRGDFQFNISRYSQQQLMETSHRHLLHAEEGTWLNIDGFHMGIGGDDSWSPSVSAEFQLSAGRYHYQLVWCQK
# Assay: monoclonal phage TRF
row,Binder,TRF signal
1,B1,518000
2,B2,62000
3,B3,258000
4,B4,531000
5,B5,523000
6,B6,501000
7,B7,246000
8,B8,312000
9,B9,289000

# Molecular target: trypsin
# Assay: monoclonal phage ELISA
row,Binder,ELISA signal
1,B10,82500
2,B11,72800
3,B12,27600
4,B13,70300
5,B14,68000
6,B15,9820
7,B16,102000
8,B17,128000
9,B18,121000
10,B19,119000
